The text below walks through data of patent publication US20060294600A1.

The target of this experiment is Runx2 expressed from pCMV5 Cbfa1 in transfected cells. In words: cell-based or functional assay.

For the substance “Fhl2 expressed from pCMX Fhl2 in Cos-7 cells (from UniProt Q14192 1-279)”, the transcriptional activity of Runx2 (luciferase reporter, transient transfection in Cos-7 cells; 6xOSE2 artificial promoter and human osteocalcin promoter) was 3 fold.
